# B1: purified budding yeast tubulin heterodimer, Tub1-WT (internal 6X-His) with Tub2 [S. cerevisiae] / GST-TOG1/2 (the two TOG domains of Stu2 fused to a GST tag, Stu2 1-590) [S. cerevisiae] (parent complex)
# chain 1: MREVISINVGQAGCQIGNACWELYSLEHGIKPDGHLEDGLSKPKGGEEGFSTFFHETGYGKFVPRAIYVDLEPNVIDEVRNGPYKDLFHPEQLISGKEDAANNYARGHYTVGREILGDVLDRIRKLADQCDGLQGFLFTHSLGGGTGSGLGSLLLEELSAEYGKKSKLEFAVYPAPQVSTSVVEPYNTVLTTHTTLEHADCTFMVDNEAIYDMCKRNLDIPRPSFANLNNLIAQVVSSVTASLRFDGSLNVDLNEFQTNLVPYPRIHFPLVSYSPVLSKSKAFHESNSVSEITNACFEPGNQMVKCDPRDGKYMATCLLYRGDVVTRDVQRAVEQVKNKKTVQLVDWCPTGFKIGICYEPPTATPNSQLATVDRAVCMLSNTTSIAEAWKRIDRKFDLMYAKRAFVHWYVGEGMEEGEFTEAREDLAALERDYIEVGADSYAEEEEF
# chain 2: MREIIHISTGQCGNQIGAAFWETICGEHGLDFNGTYHGHDDIQKERLNVYFNEASSGKWVPRSINVDLEPGTIDAVRNSAIGNLFRPDNYIFGQSSAGNVWAKGHYTEGAELVDSVMDVIRREAEGCDSLQGFQITHSLGGGTGSGMGTLLISKIREEFPDRMMATFSVLPSPKTSDTVVEPYNATLSVHQLVEHSDETFCIDNEALYDICQRTLKLNQPSYGDLNNLVSSVMSGVTTSLRYPGQLNSDLRKLAVNLVPFPRLHFFMVGYAPLTAIGSQSFRSLTVPELTQQMFDAKNMMAAADPRNGRYLTVAAFFRGKVSVKEVEDEMHKVQSKNSDYFVEWIPNNVQTAVCSVAPQGLDMAATFIANSTSIQELFKRVGDQFSAMFKRKAFLHWYTSEGMDELEFSEAESNMNDLVSEYQQYQEATVEDDEEVDENGDFGAPQNQDEPITENFE
# chain 3: MSGEEEVDYTTLPLEERLTYKLWKARLEAYKELNQLFRNSVGDISRDDNIQIYWRDPTLFAQYITDSNVVAQEQAIVALNSLIDAFASSSLKNAHNITLISTWTPLLVEKGLTSSRATTKTQSMSCILSLCGLDTSITQSVELVIPFFEKKLPKLIAAAANCVYELMAAFGLTNVNVQTFLPELLKHVPQLAGHGDRNVRSQTMNLIVEIYKVTGNNSDLLEEILFKKLKPIQVKDLHKLFAKVGDEPSSSKMLFEWEKRELEKKRSQEEEARKRKSILSNDEGEYQIDKDGDTLMGMETDMPPSKQQSGVQIDTFSMLPEETILDKLPKDFQERITSSKWKDRVEALEEFWDSVLSQTKKLKSTSQNYSNLLGIYGHIIQKDANIQAVALAAQSVELICDKLKTPGFSKDYVSLVFTPLLDRTKEKKPSVIEAIRKALLTICKYYDPLASSGRNEDMLKDILEHMKHKTPQIRMECTQLFNASMKEEKDGYSTLQRYLKDEVVPIVIQIVNDTQPAIRTIGFESFAILIKIFGMNTFVKTLEHLDNLKRKKIEETVKTLPNFSIASGSTHSTIETNKQTGPMENKFLLK
# Variants of: B1
# Experiment: in vitro binding assay: unbound tubulin in supernatant after GST-TOG1/2 incubation, α-tubulin western blot; highest GST-TOG1/2 concentration, est. ~5000 nM read from x axis; low constant tubulin concentration; n=3 experiments; parent: 14; read off a plot
row,Variant,screen value
1,chain 1 V410I,~71%
2,chain 1 V410A,~85%
